Measured values: patent US20210093714A1, “Combination and method for inhibiting the cancer cells” (NATIONAL TAIWAN UNIVERSITY, priority 2013, published 2021)

Columns and labels:
EGFR = experiment: Western blot of EGFR expression in PC9/WT and PC9/IR; type: cell-based; details: 100 ng/mL rCCN2, 0 to 12 hours, FIG. 8C
Method: (§1) Proteins ([…]) were separated by SDS-PAGE and transferred to a polyvinylidene difluoride membrane (Immobilon-P membrane; Millipore) by electrotransfer. The blot was blocked in a solution of 5% skim milk and 0.1% Tween 20 in PBS. Thereafter, membrane-bound proteins were probed with the following primary antibodies: CCN2, DAPK, phosphorylated ERK, ERK-1, phosphorylated Akt, Akt, TrkA, phosphorylated-Src, Src, b-actin, a-tubulin (Santa Cruz Biotechnology), p-EGFR, and EGFR (Cell Signaling Technology, Danvers, MA, USA). The membrane was washed and then incubated with HRP-conjugated secondary antibodies for 30 min. Enhanced chemiluminescence reagents (Amersham Pharmacia Biotech, Piscataway, N.J., USA) were employed to depict the protein bands on membranes. The light was captured on Kodak X-Omat Blue autoradiography film (PerkinElmer Life Sciences, Boston, Mass., USA).

[1] = biological target: T1, Epidermal growth factor receptor (EGFR) (human, UniProt P00533 25-1210); experiment: FACS on CL1-5 and A549 cells (legend of FIG. 2B)
T1 construct: whole, on cells; FACS and immunoprecipitation used EGFR in or on cells
Method: After washing, cells were stained with an FITC-labelled goat anti-rabbit secondary antibody (Santa Cruz Biotechnology) for 30 min in the dark. Analysis was then conducted with an FACS Calibur cytometer (Collaborative Biomedical, BD Biosciences).

wild-type EGFR = experiment: Western blot of EGFR expression, H1299 wild-type EGFR; type: cell-based, human; details: H1299 lung adenocarcinoma cell lines (wild-type EGFR); 0 minutes to 4 hours; FIG. 7
Method: as §1
(§2) First, the effect of rCCN2 on the wild-type EGFR […] lung adenocarcinoma cell line, the mutated-type EGFR H1299 lung adenocarcinoma cell line, and the mutated-type EGFR H1975 lung adenocarcinoma cell line was observed by western blot analysis, the results shown in FIG. 7(Cell lysates of H1299 transfectants or H1975 cells were immunoblotted with anti-EGFR).

[2] = test system: lung adenocarcinoma cell line, CL1-5; experiment: In vivo anoikis, high-frequency ultrasonic imaging, s.c. CL1-5; details: nude mice, rCCN2 i.p. 1 mg/kg per day, FIG. 5F
Description: Mice were anesthetized with isoflurane inhalation, and biofluorescence images were photographed with a CCD camera (IVIS; Xenogen Corporation, Caliper Life Sciences, Hopkinton, Mass., USA) at specific times. Imaging times ranged from 1 to 60 s, depending on the amount of fluorescence activity. Biofluorescence from the region of interest (ROI) was defined manually, and the data were expressed as photon flux (photons/s/cm^2/steradian). Background photon flux was defined using an ROI from a mouse that was not given an […]. injection of cancer cells. All biofluorescence data were collected and analyzed using IVIS. Celltracker dye was purchased from Molecular Probes, Invitrogen Corporation.
Next, the effect of rCCN2 on anoikis in the lung adenocarcinoma cell line, CL1-5, (in vivo) was observed by high-frequency ultrasonic imaging, the results shown in FIG. 5F(top right indicated as the amplification view of the yellow squares). In this embodiment, the lung adenocarcinoma cell line, CL1-5, was injected into the s.c. region of nude mice and the mice was treated i.p. either with rCCN2 (1 mg/kg per day) or a control solution (citrate buffer), and anoikis in the lung adenocarcinoma cell line, CL1-5,(in vivo) was observed by high-frequency ultrasonic imaging.

c-Src = experiment: Western blot of c-Src autophosphorylation; type: cell-based, human; details: CL1-5; 0 to 60 minutes; FIG. 3E
Method: as §1
Next, the effect of CCN2 on the formation of EGFR/Src complex and the phosphorylation of Src in the lung adenocarcinoma cell lines, CL1-5, A549 and CL1-0/siCCN2, was observed by western blot analysis, the results shown in FIGS. 3C to 3E.

[3] = test system: lung adenocarcinoma cell line, CL1-0/siCCN2; experiment: Anoikis assay with DAPK siRNA; type: cell-based, human; details: CL1-0/siCCN2 in suspension, DAPK expression decreased due to siRNA; 24 h; FIG. 6C
ERK = experiment: Western blot of ERK phosphorylation; type: cell-based, human; details: CL1-5, A549 and CL1-0/siCCN2; with increasing time; FIG. 3A
Method: as §1
This embodiment focuses on the effect of CCN2 on the EGFR-induced signaling pathways. At first, the effect of exogenous CCN2(rCCN2) on the MAPK/AKT signaling pathways in the lung adenocarcinoma cell lines, CL1-5, A549 and CL1-0/siCCN2 was observed by western blot analysis, the results shown in FIG. 3A.

[4] = test system: mutated-type EGFR (L858R); experiment: Western blot of EGFR expression, H1299 mutated-type EGFR; type: cell-based, human; details: H1299 (single mutation point, L858R); 0 minutes to 4 hours; FIG. 7
Method: as §1, §2

[5] = test system: mutated-type EGFR (L858R and T790M); experiment: Western blot of EGFR expression, H1975; type: cell-based, human; details: 0 to 4 hours, FIG. 7
Method: as §1, §2

β-pix/c-Cbl complex = experiment: Immunoprecipitation/western blot of β-pix/c-Cbl complex and β-pix phosphorylation; type: cell-based, human; details: CL1-5; 0 to 60 minutes; FIG. 4G
Method: as §1
CCN2 transfectants were seeded overnight and incubated in serum-free media for 24 h. For immunoprecipitations, cells were lysed in an RIPA buffer (150 mM NaCl, 50 mM Tris-base, 5 mM EDTA, 1% NP-40, and 0.25% deoxycholate; pH 7.4). Protein concentrations were determined using the BCA protein assay kit (Pierce, Rockford, Ill., USA). […]

[6] = test system: CL1-5 lung adenocarcinoma cell lines; experiment: MTT Assay, cell survival of CL1-5, rCCN2 and cetuximab; type: cell-based, human; details: attached CL1-5; rCCN2 alone 0 to 200 ng/mL; FIG. 8F

B1: Connective tissue growth factor (CCN2), wild-type full length (ligand, human, UniProt P29279 27-349, looked up)
chain: QNCSGPCRCPDEPAPRCPAGVSLVLDGCGCCRVCAKQLGELCTERDPCDPHKGLFCHFGSPANRKIGVCTAKDGAPCIFGGTVYRSGESFQSSCKYQCTCLDGAVGCMPLCSMDVRLPSPDCPFPRRVKLPGKCCEEWVCDEPKDQTVVGPALAAYRLEDTFGPDPTMIRANCLVQTTEWSACSKTCGMGISTRVTNDNASCRLEKQSRLCMVRPCEADLEENIKKGKKCIRTPKISKPIKFELSGCTSMKTYRAKFCGVCTDGRCCTPHRTTTLPVEFKCPDGEVMKKNMMFIKTCACHYNCPGDNDIFESLYYRKMYGDMA
notes: also called Recombinant CCN2; exogenous CCN2
EGFR; attached PC9/IR
  expression of EGFR: suppressed more significantly
EGFR; attached PC9/WT
  expression of EGFR: suppressed more significantly
[1]
  binding result: binds
wild-type EGFR
  expression of EGFR: inhibit the expression of EGFR more significantly
[2]
  anoikis in vivo: clearly appeared anoikis
c-Src
  autophosphorylation of c-Src Y416: gradually inhibit the autophosphorylation of c-Src^Y416
[3]
  rCCN2 induced DNA fragmentation: decreased
ERK
  phosphorylation of ERK (p-ERK1/2): gradually reduce the phosphorylation of ERK
[4]
  expression of EGFR: inhibit the expression of EGFR more significantly
[5]
  expression of EGFR: inhibit the expression of EGFR more significantly
β-pix/c-Cbl complex
  formation of β-pix/c-Cbl complex: gradually reduce the formation of β-pixie-Chi complex
  β-pix phosphorylation: reduces β-pix phosphorylation
[6]
  cell survival: not significantly reduced
